Measurements from publication doi:10.1101/2019.12.19.882696.

Biological target: Cys-OmpX labelled with Alexa Fluor 488 (E. coli) (UniProt P0A917)
Experiment: MST

Kd: 800 nM
Substance: E. coli SurA wild type (mature, tag cleaved) (from UniProt P0ABZ6 21-428) (natural protein)
